Reference: US9358023B2, “Systems and methods for opening of a tissue barrier” (priority 2009, dated 2016)

Experiments:
blood-brain barrier [1] = experiment: Volume and duration of FUS-induced BBB opening with size-isolated microbubbles, by Gd-DTPA-BMA contrast-enhanced T1 MRI; assay type: in vivo, mice (C57BL/6)
From the text: Acoustic waves used were generated by a single-element, spherical-segment FUS transducer (center frequency: 1.5 MHz, focal depth: 60 mm, radius: 30 mm; Imasonic, France), which was driven by a function generator (Agilent, Palo Alto, Calif.) through a 50-dB power amplifier (E&I, Rochester, N.Y.) (for example as shown in FIG. 5). A central-void (radius: 11.2 mm) of the therapeutic transducer held a pulse-echo ultrasound transducer (center frequency: 10 MHz, focal length: 60 mm), which was used for imaging, with their two foci aligned. The imaging transducer was driven by a pulser-receiver (Olympus, Waltham, Mass.) connected to a digitizer (Gage Applied Technologies, Lachine, QC, Canada). A cone filled with degassed and distilled water was mounted onto the transducer system and was fitted with a polyurethane membrane (Trojan; Church & Dwight Co., Princeton, N.J.). The transducers were attached to a computer-controlled 3D positioning system (Velmex, Lachine, QC, Canada). The targeting procedure has been described herein. […]
BBB opening in the murine hippocampus was confirmed using a 9.4 T system (Broker Medical; Boston, Mass.). […] Vital signals were monitored and respiration rate was approximately 55 breaths/min. […] In the five cases where signal enhancement was detected on day 5, MRI sessions were repeated on day 7. […]

[2] = test system: phosphorylated TrkB receptor (pTrkB Y816 and Y515); experiment: Immunohistochemistry DAB stain intensity after FUS and BDNF: phosphorylated TrkB; assay type: in vivo, mice (C57Bl6)
Procedure: (§1) Immunohistochemistry was performed only in the case of BDNF. Five primary antibodies were used: two against phosphorylated TrkB receptor (p-Y816 rabbit polyclonal [ab75173] and p-Y515, rabbit polyclonal [ab51187]) purchased from Abeam Inc. (Cambridge, Mass.), and three against phosphorylated Akt (p-S473 rabbit monoclonal [#4060]), phosphorylated MAPK (p-T202/T204 rabbit monoclonal [#4370]), and phosphorylated CREB (p-S133 rabbit monoclonal [#9198]), all purchased from Cell Signaling Technology (Danvers, Mass.). Slides containing thin frozen sections (5-10 μm) were dried and placed in a citrate buffer (pH 6.0) for antigen retrieval using a microwave. Slides were allowed to cool for 20 minutes prior to a PBS rinse (3×5 min) and then incubated in 0.3% hydrogen peroxide in PBS (five min) to block endogenous peroxidase activity. Slides were washed again in PBS (3×5 min) and blocked in 10% normal goat serum with 0.1% BSA for 20 minutes. After blocking solution was removed, the primary antibodies were diluted in DAKO antibody diluent solution (1:50-1:300) and incubated for 60 minutes at room temperature. Slides were washed in PBS for five min and incubated with biotinylated secondary antibody (goat anti-rabbit 1:200; Vector Laboratories, Burlingame, Calif.) for 30 minutes at room temperature. […]

[3] = test system: phosphorylated MAPK (T202-T204); experiment: Immunohistochemistry DAB stain intensity after FUS and BDNF: phosphorylated MAPK; assay type: in vivo, mice (C57Bl6)
Procedure: as §1

[4] = test system: phosphorylated CREB (S133); experiment: Immunohistochemistry DAB stain intensity after FUS and BDNF: phosphorylated CREB; assay type: in vivo, mice (C57Bl6)
Procedure: as §1

[5] = test system: phosphorylated Akt (S473); experiment: Immunohistochemistry DAB stain intensity after FUS and BDNF: phosphorylated Akt; assay type: in vivo, mice (C57Bl6)
Procedure: as §1

[6] = in vivo; cited from earlier work
[7] = test system: ACHE (acetylcholine esterase); settings: dose-dependent induction of ACHE, rat basal forebrain primary septal culture; according to the supplier; cited from earlier work
blood-brain barrier [8] = experiment: Delivery of Alexa Fluor 594-tagged BDNF across the FUS-opened BBB, fluorescence of brain sections; settings: mouse sacrificed 20 min after sonication
[9] = BDNF-administered mice, sacrificed 20-30 min, N=3

## CNC(=O)CN(CCN(CCN(CC(=O)[O-])CC(=O)NC)CC(=O)[O-])CC(=O)[O-].[Gd+3] [Gd-DTPA-BMA]
blood-brain barrier [1]
  time to peak signal enhancement in the sonicated hippocampus after IP injection: approximately 1 h

B1: BDNF: BDNF Human Recombinant produced in Escherichia Coli, homodimer, non-glycosylated, 2×119 amino acids, 27 kDa (protein, UniProt P23560 19-247, looked up)
Neurotrophic factor BDNF …: APMKEANIRGQGGLAYPGVRTHGTLESVNGPKAGSRGLTSLADTFEHVIEELLDEDQKVRPNEENNKDADLYTSRVMLSSQVPLEPPLLFLLEEYKNYLDAANMSMRVRRHSDPARRGELSVCDSISEWVTAADKKTAVDMSGGTVTVLEKVPVSKGQLKQYFYETKCNPMGYTKEGCRGIDKRHWNSQCRTTQSYVRALTMDSKKRIGWRFIRIDTSCVCTLTIKRGR
modifications: E. coli-expressed, non-glycosylated homodimer
notes: BDNF Human Recombinant produced in Escherichia Coli, homodimer, non-glycosylated, 2×119 amino acids, 27 kDa
[2]; [9]
  mean percent change in DAB stain intensity between left and right hippocampal regions, pTrkB (Y515 and Y816 combined): 25.22%
[2]; mouse expiring 3 min after BDNF injection
  difference in DAB intensity between left sonicated hippocampus and control, pTrkB: observed
[3]; [9]
  mean percent change in DAB stain intensity between left and right hippocampal regions, pMAPK: 60.58%
[3]; mouse sacrificed 3 min
  difference in DAB intensity between sonicated and control hippocampus, pMAPK: No difference in DAB intensity
[4]; 3-min case
  difference in DAB intensity between left sonicated hippocampus and control, pCREB: not
[4]; [9]
  mean percent change in DAB stain intensity between left and right hippocampal regions, pCREB: 56.91%
[5]; 3-min case
  difference in DAB intensity between left sonicated hippocampus and control, pAkt: not
[5]; sacrificed 20-30 min
  mean percent change in DAB stain intensity, pAkt, BDNF-administered mice vs control mice: similar
[6]
  half-life of circulating BDNF: less than 10 min
[7]
  ED50: 0.05 µg/mL
blood-brain barrier [8]
  fluorescent intensity, sonicated hippocampus (left) vs un-sonicated hippocampus (right): much higher fluorescent intensity
